Test results as given in US20090169570A1 (BIOTEST, published 2009).
Values joined by “and” are separate entries in the source; they are usually repeats but may differ in a detail not shown here. Equal entries are not always repeated.

T1: CD138 expressed on the cell surface (OPM-2, MOLP-8 cells) (human, UniProt P18827 23-310)
T1 sequence (looked up): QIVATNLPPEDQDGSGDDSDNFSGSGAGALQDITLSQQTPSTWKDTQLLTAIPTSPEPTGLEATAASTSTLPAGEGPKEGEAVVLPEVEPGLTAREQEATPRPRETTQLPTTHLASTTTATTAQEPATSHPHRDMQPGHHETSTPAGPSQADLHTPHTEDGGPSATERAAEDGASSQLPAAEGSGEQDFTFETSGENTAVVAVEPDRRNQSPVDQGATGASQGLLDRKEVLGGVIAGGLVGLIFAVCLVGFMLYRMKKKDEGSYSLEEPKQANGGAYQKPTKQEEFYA

T2: Soluble CD138 antigen from U-266 cell culture supernatant, biotinylated (human, UniProt P18827 23-245, limits assumed, biotinylated on primary amino groups with Sulfo-NHS-LC-Biotin)
T2 construct: This is the soluble form in the supernatant of the human MM cell line U-266; also called bCD138; biotinylated CD138
T2 sequence (looked up): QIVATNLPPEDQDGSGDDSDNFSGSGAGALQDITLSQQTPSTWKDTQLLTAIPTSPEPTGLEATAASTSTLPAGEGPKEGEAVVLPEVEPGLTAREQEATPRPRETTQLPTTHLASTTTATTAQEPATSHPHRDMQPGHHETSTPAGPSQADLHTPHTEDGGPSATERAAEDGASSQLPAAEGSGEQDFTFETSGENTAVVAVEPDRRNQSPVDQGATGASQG


Tests used:
[1] = target: T1, CD138 expressed on the cell surface …; assay: cell-based or functional assay
[2] = target: T1, CD138 expressed on the cell surface …; assay: FACS on CD138+ OPM-2 cells, fluorescence-labeled secondary antibody, mean fluorescence against concentration
From the text: The mean fluorescence measured in these experiments was plotted against the antibody concentration.
In FIG. 6, the mean fluorescences as measure for the amount of cell bound antibody is plotted against different antibody or conjugate concentrations.

[3] = target: T2, Soluble CD138 antigen from U-266 cell …; assay: SPR (BIACORE C), mean of three independent experiments, biotinylated soluble CD138 on streptavidin chip
Experimental: (§1) The unbound biotinylation reagent was removed using protein desalting columns. Immobilization of bCD138 The sensorchip (SENSOR CHIP SA, BIACORE AB) used in the BIACORE assay is designed to bind biotinylated molecules for interaction analysis in BIACORE systems. The surface consists of a carboxymethylated dextran matrix pre-immobilized with streptavidin and ready for high-affinity capture of biotinylated ligands. Immobilization of bCD138 was performed on SENSOR CHIP SA using a flow rate of 10 μL/min by manual injection. The chip surface was conditioned with three consecutive 1-minute injections of 1 M NaCl in 50 mM NaOH.
(§2) The software of BIACORE C uses pre-defined masks, so called “Wizards” for different experiments where only certain settings can be changed. As the BIACORE C was originally developed to measure concentrations, there is no wizard designed to carry out affinity measurements. […] With this wizard, two flow cells were measured and the dissociation phase was set to 90 s by performing the “Regeneration 1” with BIACORE running buffer. […] The dissociation equilibrium constants were determined by calculating the rate constants ka and kd. Afterwards, the KD-values of the analytes were calculated by the quotient of kd and ka with the BIAevaluation software.

[4] = target: T2, Soluble CD138 antigen from U-266 cell …; assay: SPR (BIACORE C), biotinylated soluble CD138 on streptavidin chip, conjugate as analyte at 3.13-100 nM
Experimental: as §1, §2

Row | Binder | EC50 (read off the curve) [2] | other results
1 | nBT062-SPDB-DM4 (antibody, human IgG4, kappa, V domains shown, maytansinoid DM4 attached via SPDB (disulfide) linker; attachment residues and chain not stated) VH: QVQLQQSGSELMMPGASVKISCKATGYTFSNYWIEWVKQRPGHGLEWIGEILPGTGRTIYNEKFKGKATFTADISSNTVQMQLSSLTSEDSAVYYCARRDYYGNFYYAMDYWGQGTSVTVSS VL: DIQMTQSTSSLSASLGDRVTISCSASQGINNYLNWYQQKPDGTVELLIYYTSTLQSGVPSRFSGSGSGTDYSLTISNLEPEDIGTYYCQQYSKLPRTFGGGTKLEIKR |  | IC50 (read off the curve); surviving fraction of MOLP-8 cells (WST viability assay, 5 days), curve 'w/o blocking' [1]: ~0.08 nM
2 | nBT062 (antibody, human IgG4, kappa, V domains shown, also called cB-B4; chimeric B-B4) VH: QVQLQQSGSELMMPGASVKISCKATGYTFSNYWIEWVKQRPGHGLEWIGEILPGTGRTIYNEKFKGKATFTADISSNTVQMQLSSLTSEDSAVYYCARRDYYGNFYYAMDYWGQGTSVTVSS VL: DIQMTQSTSSLSASLGDRVTISCSASQGINNYLNWYQQKPDGTVELLIYYTSTLQSGVPSRFSGSGSGTDYSLTISNLEPEDIGTYYCQQYSKLPRTFGGGTKLEIKR | ~1 nM | 
3 | B-B4-SPP-DM1 (antibody, V domains shown, maytansinoid DM1 attached via SPP (disulfide) linker; attachment residues and chain not stated, the variable domain limits are inferred as for B-B4) VH: QVQLQQSGSELMMPGASVKISCKATGYTFSNYWIEWVKQRPGHGLEWIGEILPGTGRTIYNEKFKGKATFTADISSNTVQMQLSSLTSEDSAVYYCARRDYYGNFYYAMDYWGQGTSVTVSS VL: DIQMTQSTSSLSASLGDRVTISCSASQGINNYLNWYQQKPDGTVELLIYYTSTLQSGVPSRFSGSGSGTDYSLTISNLEPEDIGTYYCQQYSKLPRTFGGGTKLEIK |  | Kd [3]: 2.6 nM; Kd [4]: 2.6 nM and 2.7 nM
4 | nBT062-SMCC-DM1 (antibody, human IgG4, kappa, V domains shown, maytansinoid DM1 attached via SMCC (non-cleavable) linker; attachment residues and chain not stated; average of 3.5 DM1 per antibody stated for nBT062-DM1) VH: QVQLQQSGSELMMPGASVKISCKATGYTFSNYWIEWVKQRPGHGLEWIGEILPGTGRTIYNEKFKGKATFTADISSNTVQMQLSSLTSEDSAVYYCARRDYYGNFYYAMDYWGQGTSVTVSS VL: DIQMTQSTSSLSASLGDRVTISCSASQGINNYLNWYQQKPDGTVELLIYYTSTLQSGVPSRFSGSGSGTDYSLTISNLEPEDIGTYYCQQYSKLPRTFGGGTKLEIKR | ~1 nM | 
5 | nBT062-SPP-DM1 (antibody, human IgG4, kappa, V domains shown, maytansinoid DM1 attached via SPP (disulfide) linker; attachment residues and chain not stated; average of 3.5 DM1 per antibody stated for nBT062-DM1) VH: QVQLQQSGSELMMPGASVKISCKATGYTFSNYWIEWVKQRPGHGLEWIGEILPGTGRTIYNEKFKGKATFTADISSNTVQMQLSSLTSEDSAVYYCARRDYYGNFYYAMDYWGQGTSVTVSS VL: DIQMTQSTSSLSASLGDRVTISCSASQGINNYLNWYQQKPDGTVELLIYYTSTLQSGVPSRFSGSGSGTDYSLTISNLEPEDIGTYYCQQYSKLPRTFGGGTKLEIKR | ~1 nM | 
